{
  "source": "the nanobody polyreactivity screen of Harvey et al. (2022)",
  "data": [
    {"experiment": "yeast display, Sf9 membrane polyspecificity reagent, FACS + sequencing; frameworks hold sequencing errors", "outline": "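A synthetic nanobody library was expressed on Saccharomyces cerevisiae BJ5465 by galactose induction for 36–48 hours. The library was stained for 1 hour at 4 °C with 10% biotinylated, detergent-solubilized Sf9 membrane reagent and enriched with streptavidin microbeads before FACS. Low and high (top ~1%) gates were set on anti-HA fluorescence for expression and streptavidin fluorescence for reagent binding, and each polyreactivity label reflects the gate of origin.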", "values": [
      {"sequence": "QVQLVESGGGLVQAGGSLRLSCAASGRTFGGYAMGWSRQAPGKERELVAAISWSGGRTYYADSVKGRFTISRDNAKNTVYLQMNSLKPEDTAVYYCAATSGRAFKYDYWGQGTQVTVSS", "polyreactivity (PSR sort gate)": "high polyreactivity"},
      {"sequence": "QVQLVESGGGLVQAGGSLRLSFAASGSIFYVYAMGWYRQAPGKERELVAAITWSGGSTYYADSVKGRFTLSRDNAKNTVYLQMNSLKPEDTAVYYCAADEGYDYPYYYWGQGTQVTVSS", "polyreactivity (PSR sort gate)": "high polyreactivity"},
      {"sequence": "QVQLVESGGGLVQAGGSVRLSCAASGRTFYYNAMGWYRQAPGKERELVAAISWSGGSTYYADSVKGRFTISRDNAKNTVYLQMNSLKPEDTAVYYCAARSRYYHFDYWGQGTQVTVSS", "polyreactivity (PSR sort gate)": "high polyreactivity"},
      {"sequence": "QVQLVETGGGLVQAGGSHRLSCAASGYIFFGNAMGWYRQAPGKERELVASIRWRGTSTYYADSVKGRFTISRDNAKNTGYLHMNSLKPEDTAVYYCAADVVRSNFYGTFLYDYDYWGQGTQVTVSS", "polyreactivity (PSR sort gate)": "low polyreactivity"},
      {"sequence": "QVLLVESGGGLVQAGGSVRLICAASGSIFKKYALGWYRPATGEERELVAAISWRGGRTYYADSVTGRFTISRDNAKNTVFLQMNSLKPEDTAVYYCAKERYVSYRGGPWVDYWGQGTQVTVSS", "polyreactivity (PSR sort gate)": "high polyreactivity"},
      {"sequence": "QVQLVESGGGLVQAGGSLRLSCAASGSTFAYYAMGWYRQAPGKERELVAVISVSGDGTSTYYADSVKGRFTISRDNAKNTVYLQMNSLKPEDSAVYYCAAEQVLVGGHTYSLTYDYWGQGTQVTVSS", "polyreactivity (PSR sort gate)": "low polyreactivity"},
      {"sequence": "QVQLVESGGGLVQAGGSLRLSCAASGRIFSRYTMVWYRQAPRKERELVAAISSSGGSTYYADSVKGRFTISRDNAKNTVYLQMNSLKQEDTAVYYCAARQYIGSPPHRRRFDYWGQGTQVTVSS", "polyreactivity (PSR sort gate)": "high polyreactivity"},
      {"sequence": "QVQLVESGGGLVQAGGSLRLSCAASGRTFQNYAMGWYRQAPGKERELVADITSGGSTYADSVKGRFTISRDNAKNTVYLQMNSLKPEDTAVYYCNADRTYPEPAEYYYWGQGTQVTVSS", "polyreactivity (PSR sort gate)": "low polyreactivity"},
      {"sequence": "QVQLVESGGGLVHAGGSLRLSCAASGSTSVYYAMGWYRQTPGKERELVAAITWDDGSTSYADSVKGRFTISRDNAKNTVYLQMNSLNPEDTAVYYCAKDYEYLGAFNYWGQGTQVTVSS", "polyreactivity (PSR sort gate)": "low polyreactivity"},
      {"sequence": "QVQLVESGGGLVQAGGSLRVSCAASGIIFDGNAMGWYRQAPGKERELVAAITASGGSTHYADSVKGRFTISRDNAKNTVYLQMNSLKPEDTAVYYCNKRSRTTGDYDYWGQGTHVTVSS", "polyreactivity (PSR sort gate)": "low polyreactivity"},
      {"sequence": "QVQLVESGGGLVQAGGSLRLSCAASASIFVNNAKGWYRQATGKERELVAAISSRSSRTIYADSVKGRFTISRDNAKKTVYLQMNSLKPEDTAVYYCAVKKRAPDGDYWGQGTQVTVSS", "polyreactivity (PSR sort gate)": "high polyreactivity"},
      {"sequence": "QVQLVESGGGLFQAGGSLRLSCAPSGFIFPKNPMSWYRHAPGKERELVAAISQSGGSTYYADSVKGRFTISRDNAKNTVYLQMKSLKADDTAVYSCAARYYLPNWVGGGEYNYWGQGTQVTVST", "polyreactivity (PSR sort gate)": "high polyreactivity"},
      {"sequence": "QVQLVESGGGLVQAGGSLRLSCAASGYTLDNYAMGWYRQAPGKERELVAGITFSGGSTFYADSVKGRFTISRDNAKNTVYLQMNSLKPEDTAVYYCAADAEFQADHKYGYWGQGSQVTVSS", "polyreactivity (PSR sort gate)": "low polyreactivity"},
      {"sequence": "QVQLVESGGGLVQAGGSLRLSCAASGRTFYYYVMGWYRQAPGKERELVAAITKSTGSTYYADSVKGRFTISRDNAKNTVYLQMNSLKPEDTAVYYCAAAYWITTPYDYWGQGTQVTVSS", "polyreactivity (PSR sort gate)": "low polyreactivity"},
      {"sequence": "HVQLVESGGGLVQAGGSLRLSCAASVTFSFYAMGWYTQSPGKERELVAAISSIGDSTYYADSVKGRFTISRDNAKNTVYLQMNSLKPEETAVYYYGVIAVDAYDYYTYDYWRQGTQVTVSS", "polyreactivity (PSR sort gate)": "high polyreactivity"},
      {"sequence": "QVQLVESGGGLVQAGGSLRLSCAASGFTFYPYALGRYRQAPRKEREFVAAISNGDSTHYADSVKGRFTISRDNAKNTVYLQMNSLKPEDTAVYYCNAYTRYPFYFVTSKYDYWGQGTQVTVSS", "polyreactivity (PSR sort gate)": "low polyreactivity"},
      {"sequence": "QVQLVESGGGLVQAGGSLRLSCAASGRIFDGYVMGWYRQAPGKERELVAAISASGGSTYYADSVKGRFTISRDNAKNTVYLQMNSLKPEDTAVYYCATDALYGYDYWGQGTQVTVSS", "polyreactivity (PSR sort gate)": "high polyreactivity"},
      {"sequence": "QAQLVESGGGLVQAGGSLRLSCAASGRTLAWYALGWYRQAPGKERELVADISSGGSTYYADSVKGRFTISRDNAKHTVYVQMNSLKPEDTAVYYCAARWRSWRYKDDYWGQGTQVTVSS", "polyreactivity (PSR sort gate)": "high polyreactivity"},
      {"sequence": "QVQLVESGGGLVQAGGSLRLSCAASGSIFGRYGKGWYRQAPGKERELVAAITSGTRTNYADSVKGRFTISRDNAKITVYLQMNSLTPEDTAVYYSAKQSYRRLPNTPYNYWGQGTQVTVSS", "polyreactivity (PSR sort gate)": "low polyreactivity"},
      {"sequence": "QVQLVESGGGLVHAGGSLRLSCAASGFTFLYNSMGWYRQAPGKERELVASINSGGSTNYADSVKGRFTISRDNAKNTVYLQMNSLKPEDTAVYYCNAKRHVRKGDYWGQGTQVTVSS", "polyreactivity (PSR sort gate)": "low polyreactivity"},
      {"sequence": "QVQLVESGGGLVQAGGSLRLSCAASGNTIDSYGMGWYRQAPGKERELVAAISTSGGSTYYADSVKGRFTISRDNAKNTVYLQMNSLKPEDTAVYYCNATWTMTYDYWGQGTQVTVSS", "polyreactivity (PSR sort gate)": "low polyreactivity"},
      {"sequence": "QDQLVESCGGLVQAGGSLRLICAASGITFRYNAMGWYRQAPGKERELVAAITFSGGSTYYADSVKGRFTISRDNAKNTVYLQMISLKPEDTAVYYCAARKARPPFPHPFDYYWGQGTQVTVSS", "polyreactivity (PSR sort gate)": "low polyreactivity"},
      {"sequence": "QVQLVESGGGLVQAGGSLRLSCAASGFTFYRYAMGWYRQAPGKEREFVAVINIRGSTTYYADSVKGRFTISRDNAKNTVYLQMNSLKPEDTAVYYCARRYRGPYYSLPRRKEFDYWGQGTQVTVSS", "polyreactivity (PSR sort gate)": "high polyreactivity"},
      {"sequence": "QVQLVESGGGLVQAGGSLRLSCAASGAIFGGYAMGWYRQAPGKERELVAAISSGGSTNYADSVKGRFTISRDNAKNTVYLQMNSLKPEDTAVYYCAVRGRLPHARQRGYVPKYYYWGQGTQVTVSS", "polyreactivity (PSR sort gate)": "high polyreactivity"},
      {"sequence": "QVQLLESGGGLVQAGGSLRLRCAASGFIISRYAMAWYRQAPGKEMELVAGITGSGGSTYYADSVKGRFTISRDNAKNTVYLQMNSLKPEDTAVYYCAAGRRGGALLFYYWGQGTLVTVSS", "polyreactivity (PSR sort gate)": "high polyreactivity"},
      {"sequence": "QVQIVDSGGGLVQAGGSLRLSCAASGRIIRGYAMGWYRQAPGKERELVAAITFSGGSPYYADSVKGRFTISRDNAKNTVYLHMNSLKPEDTAVYYCAAAYGGSSYEYNYWGQGTQVTVSS", "polyreactivity (PSR sort gate)": "low polyreactivity"},
      {"sequence": "QVQLVESGGGLVQAGGSLRLSCAASGSIFGDYAMGWYRQAPGKEREFVAGITRRGGRTYYADSVKGRFTISRDNAKNTVYLQMNSLKPEDTAVYYCNAVYSSSLRSKYDYWGQGTQVTVSS", "polyreactivity (PSR sort gate)": "high polyreactivity"},
      {"sequence": "QVQLVESGGGLVQAGGSLRLCCAAYGFTFRINAMGWYRQAHGKERELVAYMSGRGGSTYYADSVQGRFTISRDNAMNTVYLQMNSLKPEDTAVYYCAATGSSSMSSYYLGQGTQVTVSS", "polyreactivity (PSR sort gate)": "high polyreactivity"},
      {"sequence": "QVQLVESGVGIVQAGGSLRLSCAASGRIFDLYAMVWYRQAPGKEREFVAAISLSGGSTYYADSVKGRFTISRDNAKNTVYLQMNSLKPEDTAVYYCAADHTGKTYDYNYWGQGTQVTVSS", "polyreactivity (PSR sort gate)": "low polyreactivity"},
      {"sequence": "QVQLVESGGGLVQAGGSLRLSCAASGGIFVSYAMGWYRQAPGKERELVARINAVDGTNYADSVKGRFTISRDNAKYTVYLQMKSVKPEDTAVYYCAVRSPVLASDYGYYFLRDYWGQGTQVTVSS", "polyreactivity (PSR sort gate)": "low polyreactivity"},
      {"sequence": "QVQLVESGGGLVQAGGSLRLSCAASGRTFHWYAMGWYRQAPGKERELVAAIRYSAGSTYYADSVKGRFTISRDNAKNTVYLQMNSLKPEDTAVYYCAAEPYPYGPYYFLWLRYDYWGQGTQVTVSS", "polyreactivity (PSR sort gate)": "low polyreactivity"},
      {"sequence": "QVQLVESGGGLVQAGGSLRLSCAASGFTLNAYAMGWYRQAPGKERELVAAISRNGGRTYYADSVKGRFTISRDNAKNTVYLQMNSLKPEDTAVYYCNAVSGTIARPYDPYDYWGQGTQVTVSS", "polyreactivity (PSR sort gate)": "high polyreactivity"},
      {"sequence": "QVQLVESGGGLVQAGGSLRLSCAASGFIFYSYAMGWYRQAPGKEREFVAAISRAGSTNYADSVKGRFTISRDNAKNTVYLQMNSLIPEDTAVYYCNKGYHSWSRLSQFGWSYDYWGQGTQVTVSS", "polyreactivity (PSR sort gate)": "high polyreactivity"},
      {"sequence": "QVQLVESGGGLVQAGGSLRLSCAASGRIFEGYAMGWYRQAPGKEELVAAITSDASTYYADSVKGRFTISRDNAKNTVYLQMNSLKPEDTAVYYCAADTYDNDYYYWGQGTQVTVSS", "polyreactivity (PSR sort gate)": "high polyreactivity"},
      {"sequence": "QVQLVESGGGLVQAGGTLRLSCAASGSTFGYPMGGYRQSPGKERELVAAMTSTGGSTYYADSVKGRFTISRDNAKITVYLQMNSQKPEDTAVYYCAADAYWIRSRFLYRIRYNYWGLGTQVTVSS", "polyreactivity (PSR sort gate)": "high polyreactivity"},
      {"sequence": "QVQLVESGAGLVQAGGSLRLSCAASGSTFGSYTMGWYRQAPGKERELVAAINWSGGNTYYADSVKGRFTISRDTAKNTVYLQMNSLKPEDTAVYYCAAAFYIYGVEGDYWGQGTQVTVSS", "polyreactivity (PSR sort gate)": "low polyreactivity"},
      {"sequence": "QVQLVESGGGLVQAGGSLRLSCAASGNTFPVYAMGWYRQASGKERELVATITSGGSTNYADSVKGRFTISRDNAKNTVYLQMNSLKPEDTAVYDCARRAVYAKRRYDYWGQGTQVTVSS", "polyreactivity (PSR sort gate)": "low polyreactivity"},
      {"sequence": "HVQLVESGGGLVQAGGSLRLSCAASGNIFVRYAMGWYRPAPGKERELVAAISSSGGRTYYADSVKGRFTISRDNAKNTVYLQMNSLKPEDTAVYYCATGRPSHNRYDYWGQGTQVTVSS", "polyreactivity (PSR sort gate)": "high polyreactivity"},
      {"sequence": "QVQLVESGGRLVQAGGSLRLSCAASGRIFWGYALGRYRQAHGKVSELVAAITRSGGRTYYADSVKGRFTISRDNAKNTVYLQMTSLKREDTAVYYCNAVNSLQPYKFDYWVQGTQVTVSS", "polyreactivity (PSR sort gate)": "high polyreactivity"},
      {"sequence": "QVQLVESGGGLVQAGGSLRLSCAASGFIFEYYAMGWYRQAPGKERELVAAISSSGGSTYYADSVKGRFTISRDNAKITVYLQINSLKPEDTAVYYCAKDYAPSAKKLHYWGQGTQVTVSS", "polyreactivity (PSR sort gate)": "low polyreactivity"},
      {"sequence": "QVQLVESGGGLVQAGGSLRLSCAASGRTFRYNTMGWYRQAPGKERELVASISSGDRTYYADSVKGRFTISRDNAKNTVYLQMNSLKPEDTAVYYCAKDVGYWYYYWGQGTQVTVSS", "polyreactivity (PSR sort gate)": "high polyreactivity"},
      {"sequence": "QVQLVESGGGLVQAGGSLRLSCAASGSIFLHNAMGWYRQAPGKDRELVAAISGTGGRTYYADSVKGRFTISRDNAKNTVYLQMNSLKPEDTAVYYCAKAARTRGGYGYWGQGTQVTVSS", "polyreactivity (PSR sort gate)": "high polyreactivity"},
      {"sequence": "QVQLVESGGGLVQAGGSLSLICAASGNTFPPYAMGWYRQAPGKERELVAAISCGGRTYYADSVKGRFTISRDNAKNTVYLQMNSLTPEDTAVYYCAVYVPNYYSYHYDYWGQGTQVTVSS", "polyreactivity (PSR sort gate)": "high polyreactivity"}
    ]}
  ]
}
